Results taken from publication PMC4131202 (2013).

Target: actin filaments (UniProt P68133)
Test: pelleting assay

Kd: ~3 µM
B1: End4p TLD (protein)
chain: LLNAPGENIEELVDNQLAETAQAIQQAILRLQNIAAKPKDDSLSPSELQVHDSLLSASIAITEAIARLIKAATASQAEIVAQGRGSSSRGAFYKKHNRWTEGLISAAKAVARATTTLIETADGVVNGTSSFEHLIVACNGVSAATAQLVAASRVKANFASKVQDHLEDAAKAVTEACKALVRQVESVALKAKEVQHEDFSSLGVHEYRRKEIEQQVQILKLENDLVAARRRLFDMRKTSYHVA
